Source: patent US7449316B2, “UDP-galactose: β-D-galactose-R 4-α-D-galactosyltransferase, α4Gal-T1” (Glycozym APS, priority 2000, dated 2008)

T1: α4Gal-T1 (Homo sapiens, UniProt Q9NPC4)
T1 construct: The full coding constructs were assayed with 1% Triton X-100 homogenates of cells; made in house; host or cells: insect cells (High Five), baculovirus vector pVL1393
T1 sequence (Q9NPC4 1-353): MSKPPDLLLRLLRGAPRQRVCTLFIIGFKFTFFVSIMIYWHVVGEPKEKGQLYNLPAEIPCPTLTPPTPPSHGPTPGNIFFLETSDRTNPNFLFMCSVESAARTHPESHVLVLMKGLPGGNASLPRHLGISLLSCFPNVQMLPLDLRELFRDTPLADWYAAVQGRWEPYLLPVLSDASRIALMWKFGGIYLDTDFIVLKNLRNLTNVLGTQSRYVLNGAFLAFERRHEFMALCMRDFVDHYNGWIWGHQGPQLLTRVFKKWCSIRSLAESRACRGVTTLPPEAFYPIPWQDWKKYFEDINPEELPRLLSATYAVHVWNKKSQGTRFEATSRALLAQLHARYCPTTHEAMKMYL

B1: α4Gal-T1^37V: full coding human α4Gal-T1 variant, construct #45 (G109, T548, G903, A987), Val at residue 37 (protein, UniProt Q9NPC4 1-353, looked up)
chain: MSKPPDLLLRLLRGAPRQRVCTLFIIGFKFTFFVSIMIYWHVVGEPKEKGQLYNLPAEIPCPTLTPPTPPSHGPTPGNIFFLETSDRTNPNFLFMCSVESAARTHPESHVLVLMKGLPGGNASLPRHLGISLLSCFPNVQMLPLDLRELFRDTPLADWYAAVQGRWEPYLLPVLSDASRIALMWKFGGIYLDTDFIVLKNLRNLTNVLGTQSRYVLNGAFLAFERRHEFMALCMRDFVDHYNGWIWGHQGPQLLTRVFKKWCSIRSLAESRACRGVTTLPPEAFYPIPWQDWKKYFEDINPEELPRLLSATYAVHVWNKKSQGTRFEATSRALLAQLHARYCPTTHEAMKMYL
modifications: full-length
B2: α4Gal-T1^183K: full coding α4Gal-T1 from p individuals, construct p#5 (A109, A548, G903, G987), Met183 to Lys (protein, UniProt Q9NPC4 1-353, looked up, variant M183K)
chain: MSKPPDLLLRLLRGAPRQRVCTLFIIGFKFTFFVSIMIYWHVVGEPKEKGQLYNLPAEIPCPTLTPPTPPSHGPTPGNIFFLETSDRTNPNFLFMCSVESAARTHPESHVLVLMKGLPGGNASLPRHLGISLLSCFPNVQMLPLDLRELFRDTPLADWYAAVQGRWEPYLLPVLSDASRIALKWKFGGIYLDTDFIVLKNLRNLTNVLGTQSRYVLNGAFLAFERRHEFMALCMRDFVDHYNGWIWGHQGPQLLTRVFKKWCSIRSLAESRACRGVTTLPPEAFYPIPWQDWKKYFEDINPEELPRLLSATYAVHVWNKKSQGTRFEATSRALLAQLHARYCPTTHEAMKMYL
modifications: full-length
notes: full coding α4Gal-T1 from p individuals, construct p#5 (A109, A548, G903, G987), Met183 to Lys

Legend:
α4Gal-T1 = biological target: T1, α4Gal-T1; assay: Saccharide acceptor substrates tested with α4Gal-T1; format: biochemical; conditions: saccharide acceptors, α4Gal-T1 expressed in insect cells
Description: (§1) Full coding constructs were prepared by genomic PCR using primer pair HCRS131 (5′-[…]) (SEQ ID NO:7) and HCRS125 (5′-[…]) (SEQ ID NO:8) and genomic DNA from phenotyped individuals with phenotypes P1+ (#165) and p (#4) (see Table II for sequence). Three different full coding constructs were selected for expression: #67 (A109, T548, G903, G987), #45 (G109, T548, G903, A987), and p#5 (A109, A548, G903, G987). The products were cloned into BamHI and EcoRI sites of pBluescript KS+, and subsequently into the insect cell expression vector pVL1393 (Pharmingen), and sequenced in full. A truncated, secreted construct (amino acid residues 46-353) was prepared using primer pair HCRS124 (5′-[…]) (SEQ ID NO:9) and HCRS125 from a P1+ phenotype individual (#165), and the sequence confirmed as described above. The products were cloned into the expression vector pAcGP67A (Pharmingen). The variants of plasmids pVL-α4Gal-T1-full and pAcGP67-α4Gal-T1-sol were co-transfected with Baculo-Gold™ DNA (Pharmingen), and virus amplified as described previously (Bennett et al., 1996). Standard assays were performed in 50 μl reaction mixtures containing 25 mM Cacodylate (pH 6.5), 10 mM MnCl2, 0.25% Triton X-100, 100 μM UDP-[^14C]Gal (10,000 cpm/nmol) (Amersham), and the indicated concentrations of acceptor substrates (Sigma and Dextra Laboratories Ltd) (see Table I for structures). The full coding constructs were assayed with 1% Triton X-100 homogenates of cells twice washed in phosphate buffered saline or resuspended microsomal fractions.

[1] = P1 assay: α4Gal-T activity with paragloboside (PG) acceptor; format: biochemical; conditions: full coding constructs in insect cells, 20 μg PG, UDP-Gal donor
Description: (§2) FIG. 4 illustrates expression of full coding Expression of full coding α4Gal-T1 variants in High Five cells. Assays were performed with microsomal fractions, and controls included constructs encoding polypeptide GalNAc-T3 and -T4 (Bennett et al., 1998), as well as a β3GlcNAc-T (Amado et al., 1999). Autoradiography of high performance thin-layer chromatography of reaction products (4 hr) purified by SepPack C-18 columns. Panel A: P^k assay using 25 μg CDH as substrate. Plate was run in chloroform-methanol-water (60/35/8 v/v/v). […] Panel B: P1 assay using 20 μg PG as substrate. Plate was run in chloroform-methanol-water (60/40/10 v/v/v). No specific product was formed with UDP-Gal donor substrate, whereas the β3GlcNAc-T transferred GlcNAc into PG with UDP-GlcNAc.
Full coding constructs were prepared by genomic PCR using primer pair HCRS131 (5′-[…]) (SEQ ID NO:7) and HCRS125 (5′-[…]) (SEQ ID NO:8) and genomic DNA from phenotyped individuals with phenotypes P1+ (#165) and p (#4) (see Table II for sequence). Three different full coding constructs were selected for expression: #67 (A109, T548, G903, G987), #45 (G109, T548, G903, A987), and p#5 (A109, A548, G903, G987). The products were cloned into BamHI and EcoRI sites of pBluescript KS+, and subsequently into the insect cell expression vector pVL1393 (Pharmingen), and sequenced in full. […]

[2] = P^k assay: galactosyltransferase activity with CDH, α4Gal-T1 constructs expressed in insect cells; format: biochemical; conditions: full coding constructs in insect (High Five) cells, microsomal fractions, 25 μg CDH, UDP-[14C]Gal, 4 hr, compared to uninfected cells or control construct
Description: as §2, §1

Namalwa cells = assay: Cell surface P^k/CD77 antigen expression after transient transfection, FACS analysis; format: cell-based, human; conditions: transient transfection of Namalwa cells, 48 hours, 1A4 monoclonal antibody
Description: FIG. 7 illustrates cell surface expression of P^k/CD77 antigen in Namalwa cells after transient transfection of α4Gal-T1. Constructs p#5, #45, and #67, as well as empty pDR2 vector were electroporated in Namalwa cells and expression of P^k/CD77 antigen was tested after 48 hours. Cells were labeled with 1A4 monoclonal antibody and GAM-FITC (grey histograms) or with GAM-FITC alone (empty histograms) and analysed with a FACSCalibur flow cytometer.
The three full coding constructs #67, #45, and p#5, were cloned into pDR2 (Clontech, USA). Insert was excised from pBKs with BamHI/XhoI and inserted into the BamHI/SalI sites of pDR2. Transient transfection of 5×10^6 Namalwa cells with 20 μg cDNA was done by double-pulse electroporation using an Easy-cell ject+ (Eurogentec, France). Expression of CD77/P^k antigen was evaluated by FACS analysis on a FACSCalibur (Beckton-Dickinson, USA) using 1A4 monoclonal antibody (Wiels, 1997).

| Molecule | acceptor activity over background (α4Gal-T1) | galactosyltransferase (α4Gal-T) activity with CDH [2] | also measured |
| --- | --- | --- | --- |
| OC[C@H]1O[C@@H](O[C@H]2[C@H](O)[C@@H](O)[C@H](OCc3ccccc3)O[C@@H]2CO)[C@H](O)[C@@H](O)[C@H]1O [benzyl β-lacto-side] | no significant activity over background values |  |  |
| N[C@H]1C(O)O[C@H](CO)[C@@H](O[C@@H]2O[C@H](CO)[C@H](O)[C@H](O)[C@H]2O)[C@@H]1O (stereo partly drawn) [lactosamine] | no significant activity over background values |  |  |
| OC[C@H]1O[C@@H](O[C@H]2[C@H](O)[C@@H](O)C(O)O[C@@H]2CO)[C@H](O)[C@@H](O)[C@H]1O (stereo partly drawn) [lactose] | no significant activity over background values |  |  |
| B1 |  | marked increase in galactosyltransferase activity | α4Gal-T activity with neolacto-series (paragloboside) glycolipid acceptor (P1 synthase activity) [1]: neither α4Gal-T1^37M or α4Gal-T1^37V constructs conferred α4Gal-T activity; galactosyltransferase (α4Gal-T) activity with CDH ([2]; listed as #45): resulted in α4Gal-T activity toward CDH; P^k/CD77 expression (Namalwa cells): clearly resulted in P^k/CD77 expression |
| B2 |  | no activity | galactosyltransferase (α4Gal-T) activity with CDH ([2]; listed as #5): no activity above background |
